Data on four molecules can be found in patent US20240409645A1 (DUALYX, published 2024).

The labels stand for the following.
T1: human IL-2 receptor (IL-2Rα/IL-2Rβ/γc) (human, UniProt P01589 22-272; P14784 27-551; P31785 23-369)
T1 sequence 1: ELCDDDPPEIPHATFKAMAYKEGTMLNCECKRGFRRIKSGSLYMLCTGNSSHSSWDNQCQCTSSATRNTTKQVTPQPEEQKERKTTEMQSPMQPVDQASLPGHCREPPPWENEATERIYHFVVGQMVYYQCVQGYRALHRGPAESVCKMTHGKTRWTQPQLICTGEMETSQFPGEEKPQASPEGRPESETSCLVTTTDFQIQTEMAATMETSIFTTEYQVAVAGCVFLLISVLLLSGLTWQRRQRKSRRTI
T1 sequence 2: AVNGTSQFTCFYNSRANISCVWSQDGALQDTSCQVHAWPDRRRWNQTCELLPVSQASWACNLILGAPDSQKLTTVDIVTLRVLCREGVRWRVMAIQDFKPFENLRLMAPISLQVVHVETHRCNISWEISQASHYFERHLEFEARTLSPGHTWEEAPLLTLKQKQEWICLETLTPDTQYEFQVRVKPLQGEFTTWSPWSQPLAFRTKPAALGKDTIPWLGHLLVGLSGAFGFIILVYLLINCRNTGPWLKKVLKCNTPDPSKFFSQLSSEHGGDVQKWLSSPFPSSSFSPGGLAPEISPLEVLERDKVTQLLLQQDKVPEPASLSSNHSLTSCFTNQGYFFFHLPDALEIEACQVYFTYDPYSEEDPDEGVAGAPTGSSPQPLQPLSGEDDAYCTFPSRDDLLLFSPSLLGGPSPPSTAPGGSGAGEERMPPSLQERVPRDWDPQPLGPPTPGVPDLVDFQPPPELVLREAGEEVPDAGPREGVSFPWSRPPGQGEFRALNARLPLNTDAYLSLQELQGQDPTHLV
T1 sequence 3: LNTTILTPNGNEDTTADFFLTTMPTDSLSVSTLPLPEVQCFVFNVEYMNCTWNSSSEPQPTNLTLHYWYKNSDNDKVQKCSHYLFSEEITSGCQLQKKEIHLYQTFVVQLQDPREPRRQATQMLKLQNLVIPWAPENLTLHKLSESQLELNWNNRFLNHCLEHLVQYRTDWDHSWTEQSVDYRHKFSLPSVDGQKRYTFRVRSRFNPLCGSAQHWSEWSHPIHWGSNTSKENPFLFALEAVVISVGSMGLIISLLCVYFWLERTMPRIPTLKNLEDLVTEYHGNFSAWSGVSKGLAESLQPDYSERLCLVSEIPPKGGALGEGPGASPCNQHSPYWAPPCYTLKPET

B1: DC00062 (other)
chain 1: EVQLVESGGGLVQTGGSLRLSCAASGGTFSRDAMAWFRQVPGKEREFVALISWSGATTNYADSVKGRFAISRDNGKNTVYLQMNRLKPADTAIYYCAADRRPMGSRSYFEPTEYDDWGQGTQVTVSSGGGGSGGGGSGGGGSQVQLVESGGGLVQPGGSLRLSCATSGFTFRNNFMSWVRQAPGKGLEWVSTISYGGESTTYAESVKGRFTISRDNAKNTLYLQMNNLKPEDTAVYYCAKATSYDSIRSGSRGQGTQVTVSSDKTHTCPPCPAPEAAGGPSVFLFPPKPKDTLMISRTPEVTCVVVDVSHEDPEVKFNWYVDGVEVHNAKTKPREEQYNSTYRVVSVLTVLHQDWLNGKEYKCKVSNKALGAPIEKTISKAKGQPREPQVYTLPPSRDELTKNQVSLTCLVKGFYPSDIAVEWESNGQPENNYKTTPPVLDSDGSFLLYSKLTVDKSRWQQGNVFSCSVMHEALHNHYTQKSLSLSPGK
chain 2: EVQLVESGGGLVQTGGSLRLSCAASGGTFSRDAMAWFRQVPGKEREFVALISWSGATTNYADSVKGRFAISRDNGKNTVYLQMNRLKPADTAIYYCAADRRPMGSRSYFEPTEYDDWGQGTQVTVSSGGGGSGGGGSGGGGSQVQLVESGGGLVQPGGSLRLSCATSGFTFRNNFMSWVRQAPGKGLEWVSTISYGGESTTYAESVKGRFTISRDNAKNTLYLQMNNLKPEDTAVYYCAKATSYDSIRSGSRGQGTQVTVSSGGGGSGGGGSGGGGSQVQLVESGGGLVQAGGSLTLSCAAPGRTFGTDVVGWFRQAPGKEREFVASISRSGDGIYYDDSVKGRFTISRNNAWNTVNLQMNSLKVEDTAVYYCAAGDGWSTYDYWGQGTQVTVSSGGGGSGGGGSGGGGSDKTHTCPPCPAPEAAGGPSVFLFPPKPKDTLMISRTPEVTCVVVDVSHEDPEVKFNWYVDGVEVHNAKTKPREEQYNSTYRVVSVLTVLHQDWLNGKEYKCKVSNKALGAPIEKTISKAKGQPREPQVYTLPPSRDELTKNQVSLTCLVKGFYPSDIAVEWESNGQPENNYKTTPPVLDSDGSFFLYSRLTVDKSRWQQGNVFSCSVMHEALHNHYTQKSLSLSPGK
B2: DC00066 (other)
chain 1: B1 chain 1
chain 2: QVQLVESGGGLVQPGGSLRLSCATSGFTFRNNFMSWVRQAPGKGLEWVSTISYGGESTTYAESVKGRFTISRDNAKNTLYLQMNNLKPEDTAVYYCAKATSYDSIRSGSRGQGTQVTVSSGGGGSGGGGSGGGGSEVQLVESGGGLVQTGGSLRLSCAASGGTFSRDAMAWFRQVPGKEREFVALISWSGATTNYADSVKGRFAISRDNGKNTVYLQMNRLKPADTAIYYCAADRRPMGSRSYFEPTEYDDWGQGTQVTVSSGGGGSGGGGSGGGGSQVQLVESGGGLVQAGGSLTLSCAAPGRTFGTDVVGWFRQAPGKEREFVASISRSGDGIYYDDSVKGRFTISRNNAWNTVNLQMNSLKVEDTAVYYCAAGDGWSTYDYWGQGTQVTVSSGGGGSGGGGSGGGGSDKTHTCPPCPAPEAAGGPSVFLFPPKPKDTLMISRTPEVTCVVVDVSHEDPEVKFNWYVDGVEVHNAKTKPREEQYNSTYRVVSVLTVLHQDWLNGKEYKCKVSNKALGAPIEKTISKAKGQPREPQVYTLPPSRDELTKNQVSLTCLVKGFYPSDIAVEWESNGQPENNYKTTPPVLDSDGSFFLYSRLTVDKSRWQQGNVFSCSVMHEALHNHYTQKSLSLSPGK
B3: DC00064 (other)
chain 1: B1 chain 1
chain 2: QVQLVESGGGLVQPGGSLRLSCATSGFTFRNNFMSWVRQAPGKGLEWVSTISYGGESTTYAESVKGRFTISRDNAKNTLYLQMNNLKPEDTAVYYCAKATSYDSIRSGSRGQGTQVTVSSGGGGSGGGGSGGGGSQVQLVESGGGLVQAGGSLTLSCAAPGRTFGTDVVGWFRQAPGKEREFVASISRSGDGIYYDDSVKGRFTISRNNAWNTVNLQMNSLKVEDTAVYYCAAGDGWSTYDYWGQGTQVTVSSGGGGSGGGGSGGGGSEVQLVESGGGLVQTGGSLRLSCAASGGTFSRDAMAWFRQVPGKEREFVALISWSGATTNYADSVKGRFAISRDNGKNTVYLQMNRLKPADTAIYYCAADRRPMGSRSYFEPTEYDDWGQGTQVTVSSGGGGSGGGGSGGGGSDKTHTCPPCPAPEAAGGPSVFLFPPKPKDTLMISRTPEVTCVVVDVSHEDPEVKFNWYVDGVEVHNAKTKPREEQYNSTYRVVSVLTVLHQDWLNGKEYKCKVSNKALGAPIEKTISKAKGQPREPQVYTLPPSRDELTKNQVSLTCLVKGFYPSDIAVEWESNGQPENNYKTTPPVLDSDGSFFLYSRLTVDKSRWQQGNVFSCSVMHEALHNHYTQKSLSLSPGK
B4: DC00061 (other)
chain 1: QVQLVESGGGLVQPGGSLRLSCATSGFTFRNNFMSWVRQAPGKGLEWVSTISYGGESTTYAESVKGRFTISRDNAKNTLYLQMNNLKPEDTAVYYCAKATSYDSIRSGSRGQGTQVTVSSGGGGSGGGGSGGGGSEVQLVESGGGLVQTGGSLRLSCAASGGTFSRDAMAWFRQVPGKEREFVALISWSGATTNYADSVKGRFAISRDNGKNTVYLQMNRLKPADTAIYYCAADRRPMGSRSYFEPTEYDDWGQGTQVTVSSGGGGSGGGGSGGGGSDKTHTCPPCPAPEAAGGPSVFLFPPKPKDTLMISRTPEVTCVVVDVSHEDPEVKFNWYVDGVEVHNAKTKPREEQYNSTYRVVSVLTVLHQDWLNGKEYKCKVSNKALGAPIEKTISKAKGQPREPQVYTLPPSRDELTKNQVSLTCLVKGFYPSDIAVEWESNGQPENNYKTTPPVLDSDGSFLLYSKLTVDKSRWQQGNVFSCSVMHEALHNHYTQKSLSLSPGK
chain 2: QVQLVESGGGLVQAGGSLTLSCAAPGRTFGTDVVGWFRQAPGKEREFVASISRSGDGIYYDDSVKGRFTISRNNAWNTVNLQMNSLKVEDTAVYYCAAGDGWSTYDYWGQGTQVTVSSGGGGSGGGGSGGGGSQVQLVESGGGLVQPGGSLRLSCATSGFTFRNNFMSWVRQAPGKGLEWVSTISYGGESTTYAESVKGRFTISRDNAKNTLYLQMNNLKPEDTAVYYCAKATSYDSIRSGSRGQGTQVTVSSDKTHTCPPCPAPEAAGGPSVFLFPPKPKDTLMISRTPEVTCVVVDVSHEDPEVKFNWYVDGVEVHNAKTKPREEQYNSTYRVVSVLTVLHQDWLNGKEYKCKVSNKALGAPIEKTISKAKGQPREPQVYTLPPSRDELTKNQVSLTCLVKGFYPSDIAVEWESNGQPENNYKTTPPVLDSDGSFFLYSRLTVDKSRWQQGNVFSCSVMHEALHNHYTQKSLSLSPGK

For the experiment, the target named is T1, human IL-2 receptor (IL-2Rα/IL-2Rβ/γc). Briefly: cell-based or functional assay.
As for B1, the “EC50 (nM) pSTAT5, NK, human PBMCs” value amounted to 0.0307 nM; the “EC50 (nM) pSTAT5, Treg, human PBMCs” value is less than 0.1 pM; the “Fold Max signal (% pSTAT5+) Treg/NK” value turned out to be 4 fold; the “Max signal (% pSTAT5+), NK” value stood at 22 % pSTAT5+. Also, the “Max signal (% pSTAT5+), Treg” value is 93 % pSTAT5+ and the “fold EC50 NK/Treg” value was greater than 307 fold.

B2: the “EC50 (nM) pSTAT5, NK, human PBMCs” value amounted to 0.178 nM; the “EC50 (nM) pSTAT5, Treg, human PBMCs” value was less than 0.1 pM; the “Fold Max signal (% pSTAT5+) Treg/NK” value came out at 4 fold; the “Max signal (% pSTAT5+), NK” value is 27 % pSTAT5+. Also, the “Max signal (% pSTAT5+), Treg” value is 96 % pSTAT5+ and the “fold EC50 NK/Treg” value is greater than 1780 fold.

In the case of B3, the “EC50 (nM) pSTAT5, NK, human PBMCs” value was 0.186 nM; the “EC50 (nM) pSTAT5, Treg, human PBMCs” value was less than 0.1 pM; the “Fold Max signal (% pSTAT5+) Treg/NK” value amounted to 2 fold; the “Max signal (% pSTAT5+), NK” value was 38 % pSTAT5+. The “Max signal (% pSTAT5+), Treg” value was 94 % pSTAT5+ and the “fold EC50 NK/Treg” value is greater than 1860 fold.

Take B4: the “EC50 (nM) pSTAT5, NK, human PBMCs” value was 0.165 nM; the “EC50 (nM) pSTAT5, Treg, human PBMCs” value stood at 0.00427 nM; the “Fold Max signal (% pSTAT5+) Treg/NK” value amounted to 9 fold; the “Max signal (% pSTAT5+), NK” value worked out at 5 % pSTAT5+. Moreover, the “Max signal (% pSTAT5+), Treg” value came to 44 % pSTAT5+ and the “fold EC50 NK/Treg” value is 39 fold.
